T1: B-cell maturation antigen (BCMA) (human, UniProt Q02223 1-184)
T1 construct: This is endogenous BCMA on human myeloma cell lines (KMS12-PE low, MM.1R high expression); the whole entry is used; also called surface BCMA
T1 sequence: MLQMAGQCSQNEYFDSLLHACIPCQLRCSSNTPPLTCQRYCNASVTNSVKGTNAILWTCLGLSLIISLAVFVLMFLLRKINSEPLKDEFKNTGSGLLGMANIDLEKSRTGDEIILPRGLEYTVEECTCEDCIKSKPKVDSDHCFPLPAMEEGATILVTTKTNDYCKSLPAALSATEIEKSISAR

T2: NKG2D (human, UniProt P26718 1-216)
T2 construct: whole, on cells; also called NKG2D receptor
T2 sequence (looked up): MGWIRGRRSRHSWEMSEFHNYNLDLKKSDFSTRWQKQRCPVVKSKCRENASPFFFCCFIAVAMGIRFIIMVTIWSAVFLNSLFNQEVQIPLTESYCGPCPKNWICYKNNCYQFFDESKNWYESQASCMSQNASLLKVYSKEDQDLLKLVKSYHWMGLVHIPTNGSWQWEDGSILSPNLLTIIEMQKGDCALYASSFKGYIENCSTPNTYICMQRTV

B1: anti-BCMA monoclonal antibody MAB42 (antibody, V domains shown)
VH: EVQLLESGGGLVQPGGSLRLSCAASGFTFSDNAMGWVRQAPGKGLEWVSAISGPGSSTYYADSVKGRFTISRDNSKNTLYLQMNSLRAEDTAVYYCAKVLGWFDYWGQGTLVTVSS
VL: EIVLTQSPGTLSLSPGERATLSCRASQSVSDEYLSWYQQKPGQAPRLLIHSASTRATGIPDRFSGSGSGTDFTLAISRLEPEDFAVYYCQQYGYPPDFTFGQGTKVEIK
notes: also called anti-BCMA mAb; BCMA mAb
B2: NKG2D-binding-F4-TriNKET-BCMA (bispecific antibody, human IgG1, kappa)
heavy 1: EVQLLESGGGLVQPGGSLRLSCAASGFTFSDNAMGWVRQAPGKGLEWVSAISGPGSSTYYADSVKGRFTISRDNSKNTLYLQMNSLRAEDTAVYYCAKVLGWFDYWGQGTLVTVSSASTKGPSVFPLAPSSKSTSGGTAALGCLVKDYFPEPVTVSWNSGALTSGVHTFPAVLQSSGLYSLSSVVTVPSSSLGTQTYICNVNHKPSNTKVDKKVEPKSCDKTHTCPPCPAPELLGGPSVFLFPPKPKDTLMISRTPEVTCVVVDVSHEDPEVKFNWYVDGVEVHNAKTKPREEQYNSTYRVVSVLTVLHQDWLNGKEYKCKVSNKALPAPIEKTISKAKGQPREPRVYTLPPCRDELTKNQVSLTCLVKGFYPSDIAVEWESNGQPENNYKTTPPVLVSDGSFTLYSKLTVDKSRWQQGNVFSCSVMHEALHNHYTQKSLSLSPGSGSGGGGSDIQMTQSPSSVSASVGDRVTITCRASQGISSWLAWYQQKPGKAPKLLIYAASSLQSGVPSRFSGSGSGTDFTLTISSLQPEDFATYYCQQGVSFPRTFGCGTKVEIKGGGGSGGGGSGGGGSGGGGSEVQLVESGGGLVKPGGSLRLSCAASGFTFSSYSMNWVRQAPGKCLEWVSSISSSSSYIYYADSVKGRFTISRDNAKNSLYLQMNSLRAEDTAVYYCARGAPMGAAAGWFDPWGQGTLVTVSS
heavy 2: EVQLLESGGGLVQPGGSLRLSCAASGFTFSDNAMGWVRQAPGKGLEWVSAISGPGSSTYYADSVKGRFTISRDNSKNTLYLQMNSLRAEDTAVYYCAKVLGWFDYWGQGTLVTVSSASTKGPSVFPLAPSSKSTSGGTAALGCLVKDYFPEPVTVSWNSGALTSGVHTFPAVLQSSGLYSLSSVVTVPSSSLGTQTYICNVNHKPSNTKVDKKVEPKSCDKTHTCPPCPAPELLGGPSVFLFPPKPKDTLMISRTPEVTCVVVDVSHEDPEVKFNWYVDGVEVHNAKTKPREEQYNSTYRVVSVLTVLHQDWLNGKEYKCKVSNKALPAPIEKTISKAKGQPREPQVCTLPPSRDELTENQVSLTCLVKGFYPSDIAVEWESNGQPENNYKTTPPVLDSDGSFFLYSWLTVDKSRWQQGNVFSCSVMHEALHNHYTQKSLSLSPG
light: EIVLTQSPGTLSLSPGERATLSCRASQSVSDEYLSWYQQKPGQAPRLLIHSASTRATGIPDRFSGSGSGTDFTLAISRLEPEDFAVYYCQQYGYPPDFTFGQGTKVEIKRTVAAPSVFIFPPSDEQLKSGTASVVCLLNNFYPREAKVQWKVDNALQSGNSQESVTEQDSKDSTYSLSSTLTLSKADYEKHKVYACEVTHQGLSSPVTKSFNRGEC
notes: An A49 anti-NKG2D scFv sits at the C-terminus of one Fc chain; also called A49-F4-TriNKET-BCMA; NKG2D-F4-TriNKET-BCMA

Legend:
[1] = molecular target: T1, B-cell maturation antigen (BCMA); assay: flow cytometry on KMS12-PE cells, 100 ug/mL, incubation times as labelled, anti-human IgG secondary antibody
Description: KMS12-PE or MM.1R cells were incubated with an anti-BCMA monoclonal antibody (MAB42), bivalent TriNKET (NKG2D-binding-F4-TriNKET-BCMA), or monovalent TriNKET (A49-DB-TriNKET-BCMA). A49-DB-TriNKET-BCMA is a TriNKET in which the first antigen-binding site comprises an Fab that binds NKG2D and the second antigen-binding site comprises an Fab that binds BCMA, each connected to an Fc domain, forming a bi-valent antibody (WO2018/148566).
To assess total surface BCMA, a saturating concentration of 100 μg/mL was used, whereas 100 ng/mL was selected to investigate sub-saturation surface stabilization. Each sample was divided into thirds, with an aliquot each placed on ice for 20 minutes, at 37° C. for 2 hours or 37° C. for 24 hours. After the incubation period cells were washed and bound TriNKET was detected using an anti-human IgG secondary antibody. After staining the cells were fixed and stored at 4° C., all samples were analyzed at the end of the study.

CD16-F158V = molecular target: T3, CD16-F158V (UniProt P08637 17-254); assay: flow cytometry on KHYG-1 cells transduced with CD16-F158V (the cells also express NKG2D), anti-human IgG secondary antibody, MFI
T3 construct: whole, on cells; It is probably the mature protein, so it may not match the position on the precursor entry; The KHYG-1 cells also express NKG2D
Description: (§1) The KHYG-1 human NK cell line was used to assess NKG2D binding of TriNKET NKG2D-binding-F4-TriNKET-BCMA. KHYG-1 cells transduced to express CD16-F158V were used to investigate the contribution of Fc CD16 binding. TriNKETs were diluted, and were incubated with KHYG-1 cells. Binding of the TriNKET was detected using a fluorophore conjugated anti-human IgG secondary antibody. Cells were analyzed by flow cytometry and Median Fluorescence Intensity (“MFI”) reported.

NKG2D = molecular target: T2, NKG2D; assay: flow cytometry on KHYG-1 parental (CD16-) cells expressing NKG2D, anti-human IgG secondary antibody, MFI
Description: as §1

T3 sequence (P08637 17-254 F176V): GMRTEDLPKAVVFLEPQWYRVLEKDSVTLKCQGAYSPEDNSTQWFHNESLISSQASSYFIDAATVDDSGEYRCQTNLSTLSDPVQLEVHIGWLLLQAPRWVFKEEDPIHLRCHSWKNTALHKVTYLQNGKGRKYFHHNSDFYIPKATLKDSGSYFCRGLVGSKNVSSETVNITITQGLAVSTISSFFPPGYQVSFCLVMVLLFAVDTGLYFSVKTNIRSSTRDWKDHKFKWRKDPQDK

Binder	binding result [1]	binding result (CD16-F158V)	binding result (NKG2D)
B1	binds	binds	no binding (tested: 100 ug/ml)
B2	binds	binds	–
